Values joined by “and” are separate entries in the source; they are usually repeats but may differ in a detail not shown here. Identical values can stand only once. Values belong to the compound of their own block, whether it stands above or below them. Where a SMILES comes first, the peptide text is derived from it. The star is where a group is joined. X1 = CC(C(=O)*)c1ccc(-c2ccccc2)c(F)c1
What was measured:
[1] = test system: bEnd.3 cells; experiment: LDH release assay (loss of cell membrane integrity); format: cell-based, mouse; settings: 25 to 400 µM, 24 and 48 h, absorbance 492 nm, n = 6
Protocol: Immortalised brain endothelial cells, bEnd.3 (passages 15–20), were cultured, according to the (manufacture ATCC) product sheet, in a Dulbecco’s modified eagle’s medium (DMEM) high glucose medium with L-pyruvate, containing 10% (v/v) foetal bovine serum (FBS) and 1% (v/v) of 500 U/mL Penicillin/Streptomycin (Gibco, Gaithersburg, MD, USA). Cells were seeded at a density of 5 × 10^4 cells per cm^2 in 24-well plates, which were incubated at 37 °C and 5% CO2 with replacement of the culture media every 3 days.
(§1) The lactate dehydrogenase (LDH) assay provides an indication of loss of cell membrane integrity and was measured using a Promega CytoTox96® nonradioactive cytotoxicity assay kit (Southampton, UK) after 24 and 48 h of treatment. Absorption was read spectrophotometrically at 492 nm and converted to a percentage of the total LDH released from the positive control (untreated cells with complete lysis).

[2] = test system: HUVEC; experiment: as above; format: cell-based, human; settings: 25 to 400 µM, 24 and 48 h, absorbance 492 nm, n = 6
Protocol: The synthesised AEP-K-FP was also tested on human umbilical vein endothelial cells (HUVECs) (ATCC- Manassas, VA, USA) (passages 35 to 39). HUVECs were routinely cultured in an endothelial basal medium (F-12K) containing 0.05 mg/mL of endothelial cell growth supplement (ECGS), 0.1 mg/mL of heparin (Gibco Gaithersburg, MD, USA) and adjusted to a final concentration of 10% v/v of FBS (according to the manufacturer’s recommendations).
as §1

[3] = test system: brain endothelial cells (bEnd.3); experiment: Hoechst 33342/propidium iodide (HPI) staining, cell death assessment; format: cell-based, mouse; settings: 100, 300 and 400 µM, 24 h, n = 6
Excerpt: For cell death assessment, Hoechst 33342 and propidium iodide (PI) salt (HPI) was used (Sigma-Aldrich, Gillingham, UK). These intracellular dyes stain cells in which the Hoechst 33342 binds to DNA, so it is staining the nuclei, whereas PI stains […], resulting in emission of light observed under a fluorescent microscopy. Live cells appear blue with intact membranes on microscopic examination, and those at early and late apoptotic phases appear bright blue with shrinkage. On the other hand, necrotic or damaged cells appear red with ruptured membranes.
HPI dye was prepared by adding 900 µL of DMEM to a mixture solution of 50 µL of 1mg/mL Hoechst 33342 and 50 µL of 2 μg/mL PI in a glass vial. After 24 h of treatment and incubation, which were performed as previously discussed, an epi fluorescent microscopy (Olympus microscope equipped with a Nikon D1X camera, UK) was used to identify and count the cells with distinct morphologies. Cell counts for healthy (living), apoptotic, or necrotic cells were obtained from the same treatment in duplicate wells and from three different fields for each well. Counting of the cells was measured according to their appearance then averaged and expressed as a percent of the total cell number.

[4] = test system: bEnd.3 monolayer; experiment: Penetration across in vitro BBB model (bEnd.3 monolayer on transwell); format: in vitro ADME, mouse; settings: for Increase of percentage permeated relative to free FP: 200 µM; for Percentage permeated across in vitro BBB model (% of applied concentration): bEnd.3 monolayer on 12-transwell inserts, 200 µM in FBS-free, phenol-free culture media, HPLC C18, UV 248 nm
Protocol: The lyophilised powders of both AEP-K-FP and the free drug (FP) were dissolved in the FBS-free, phenol-free culture media in a concentration of 200 µM. Quantitative analysis of penetration for the free-drug and drug-attached delivery system was undertaken using HPLC (Agilent technology, Stockport, UK). The analysis was carried out using a hydrophobic C18 column (150 × 4.6 mm) at 25 °C and 20 μL of injection volume. The flow rate used was 0.6 mL/min, while the UV-detection wavelength was 248 nm, which is the λmax of FP [9]. The HPLC mobile phase solvents consisted of water/acetonitrile in which the gradient of eluent was run from 75:25 to 25:75 water: acetonitrile over 20 min. The standard curve for each molecule was obtained to calculate the percentage of the amount that transported across the in vitro BBB model.
To establish an in vitro BBB model, bEnd.3 cells were seeded on microporous membrane of 12-transwell inserts with complete culture media in a routine manner. Trans-endothelial electrical resistance (TEER) between apical and basolateral chambers was measured using an Evom voltometer (Sarasota, FL, USA) to determine the day of maximum values indicating tight junction formation, as previously described.

[5] = test system: γ-secretase in C6 glial cells; experiment: Quantification of γ-secretase enzyme by sandwich ELISA in treated cells; format: cell-based; settings: 200 µM in F-12K, 4 h, cell lysate supernatant, 6 readings, untreated control 28.43 ± 8.32
Protocol: C6 glial cells (ATCC-) (passages less than 20) were seeded using the complete growth medium, which was made according to the ATCC product sheet by addition of FBS to a final concentration of 2.5% v/v and horse serum (Gibco Gaithersburg, MD, USA) to a final concentration of 15% v/v to F-12K medium. Experiments were performed when cells reached confluence.
The investigation is based on sandwich enzyme-linked immunosorbent assay (ELISA) technology using a γ-secretase enzyme kit (Abbexa Ltd., Cambridge, UK). After confluence, C6 glial cells were treated with 200 µM FP or AEP-K-FP / F-12K solution. Wells containing untreated C6 cells were also included as a control. After 4 h of incubation, cells were washed and lysed to be centrifuged, and the supernatant was collected for assaying the γ-secretase activity immediately, according to kit instructions. Data were expressed as pg/mL, following kit instructions.

[6] = Hydrolysis and drug release in acidic lysosome-mimicking buffer; format: physicochemical; settings: phthalate buffer pH 4.5; 200 µM; static, 24 h, 37 °C; HPLC
Protocol: The AEP-K-FP was analysed for the hydrolysis of the amide linkage that coupled the drug molecules to the peptide carrier as well as its amino acids residues. This hydrolysis of the complex was evaluated in an acidic solution mimicking the lysosomal pH conditions that are likely to be found in an inflamed tissue such as that of AD-affected brain tissue. The acidic buffer solution was prepared using a phthalate solution, according to manufacturer’s instructions (Thomas Scientific, Swedesboro, NJ, USA), to obtain a final pH of 4.5. The AEP-K-FP was dissolved in this buffer solution at a concentration of 200 µM and incubated at static conditions for 24 h, 37 °C. Samples were collected and analysed by HPLC.

[7] = set-up: method as in PMID 7736686; settings: cited from earlier work
[8] = test system: γ-secretase; set-up: method as in PMID 20009055, PMID 18450517; settings: at target brain tissue; cited from earlier work

SMILES: CC(C)C[C@H](NC(=O)[C@H](CC(C)C)NC(=O)[C@H](CCCNC(=N)N)NC(=O)[C@H](CCCCN)NC(=O)[C@H](CCCNC(=N)N)NC(=O)[C@H](CC(C)C)NC(=O)[C@H](CCCCN)NC(=O)[C@H](CCCNC(=N)N)NC(=O)[C@H](CC(C)C)NC(=O)[C@H](CCCCNC(=O)C(C)c1ccc(-c2ccccc2)c(F)c1)NC(=O)C(C)c1ccc(-c2ccccc2)c(F)c1)C(=O)N[C@@H](CCCNC(=N)N)C(=O)O (stereo partly drawn) [AEP-K-FP] (X1-K(X1)LRKLRKRLLR-OH; N-terminus and C-terminus assumed)
- LDH release, % of positive control (complete lysis) [1]: less than 50%
- LDH release, % of positive control (complete lysis) [2]: less than 50%
- Apoptotic cells, % of total cell number (HPI staining) [3]: ≤ 4.7%
- Healthy cells, % of total cell number (HPI staining) [3]: ≥ 91%
- Necrotic cells, % of total cell number (HPI staining) [3]: ≤ 3.4%
- Increase of percentage permeated relative to free FP ([4]; bEnd.3 BBB model, 1 h): more than 6 times
- Increase of percentage permeated relative to free FP ([4]; bEnd.3 BBB model, 4 h): 4 times
- Percentage permeated across in vitro BBB model (% of applied concentration) ([4]; 1 h): 16.3%
- Percentage permeated across in vitro BBB model (% of applied concentration) ([4]; 4 h): 35.9%
- γ-secretase enzyme amount, Mean ± SD [5]: 14.6 pg/mL and 14.60 ± 3.51 pg/mL
- Percentage of hydrolysed FP out of the total amount of AEP-K-FP [6]: 69.2%

- Penetration, % of initial payload concentration ([4]; bEnd.3 BBB model, time not stated at this place (discussion)): less than 9%
- Percentage permeated across in vitro BBB model (% of applied concentration) ([4]; 1 h): ≤ 2.7%
- Percentage permeated across in vitro BBB model (% of applied concentration) ([4]; 4 h): ≤ 8.5%
SMILES: CC(C(=O)O)c1ccc(-c2ccccc2)c(F)c1 (stereo not drawn) [FP, Flurbiprofen]
- γ-secretase enzyme amount, Mean ± SD [5]: 8.2 pg/mL and 8.20 ± 3.80 pg/mL
- Biological half-life [7]: 4 h
- Time to full excretion from the body [7]: ≤ 24 h
- Required therapeutic concentration for significant pharmacological effect on γ-secretase activity [8]: 150−250 μM

— publication PMC7466704, “A Peptide-Based Nanocarrier for an Enhanced Delivery and Targeting of Flurbiprofen into the Brain for the Treatment of Alzheimer’s Disease: An In Vitro Study” (Nanomaterials, 2020)
